Results reported in publication PMC5068707 (PLoS Pathogens, 2016).
Where no end group is shown, it is not given here.

B1: Ebola virus VP30 C-terminal domain (amino acids 139–288) (domain or fragment)
chain: GPKITLLTLIKTAEHWARQDIRTIEDSKLRALLTLCAVMTRKFSKSQLSLLCETHLRREGLGQDQAEPVLEVYQRLHSDKGGSFEAALWQQWDRQSLIMFITAFLNIALQLPCESSAVVVSGLRTLVPQSDNEEASTNPGTCSWSDEGTP
B2: biotinylated EBOV NP peptide 560–617 (peptide)
chain: RMLTPINEEADPLDDADDETSSLPPLESDDEEQDRDGTSNRTPTVAPPAPVYRDHSEK
modifications: not fully specified (N-terminus); also: biotinylated (position not given here)

Legend:
[1] = molecular target: MARV NP 552-579-VP30 146–281 fusion protein (Marburg virus (MARV)) (UniProt P27588); assay: crystal structure
[2] = molecular target: T1, EBOV NP C-terminal portion (360–739) (Ebola virus (EBOV), UniProt P18272 360-739); assay: ITC; conditions: both partners purified
T1 sequence: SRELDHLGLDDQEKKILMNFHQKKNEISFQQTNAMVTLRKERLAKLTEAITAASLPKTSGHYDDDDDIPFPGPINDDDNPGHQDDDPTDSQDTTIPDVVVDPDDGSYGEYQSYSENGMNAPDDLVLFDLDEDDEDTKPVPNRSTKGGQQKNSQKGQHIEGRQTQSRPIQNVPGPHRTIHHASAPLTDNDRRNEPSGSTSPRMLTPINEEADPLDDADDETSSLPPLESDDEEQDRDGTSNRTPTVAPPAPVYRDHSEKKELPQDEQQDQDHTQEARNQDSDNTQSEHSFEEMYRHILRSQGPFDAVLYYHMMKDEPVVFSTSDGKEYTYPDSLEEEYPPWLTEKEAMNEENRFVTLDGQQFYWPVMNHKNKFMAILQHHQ

MARV VP30 CTD (146–281) = molecular target: T2, MARV VP30 CTD (146–281) (Marburg virus (MARV), UniProt P35258 146-281); assay: ITC; conditions: both partners purified
T2 sequence: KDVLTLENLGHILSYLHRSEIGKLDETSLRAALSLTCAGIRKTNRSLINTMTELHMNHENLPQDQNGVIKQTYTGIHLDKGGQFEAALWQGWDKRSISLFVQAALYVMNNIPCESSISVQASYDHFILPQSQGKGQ

[3] = molecular target: B1; assay: BLI; conditions: both partners purified
[4] = molecular target: B1; assay: crystal structure; conditions: both partners purified

Molecule: MARV NP 552-579-VP30 146–281 fusion protein (from UniProt P27588;P35258)
- stoichiometry N [1]: 2

Molecule: B1
- Kd [2]: 21.3 µM

Molecule: EQGVDLPPPPLYAQEKRQ [MARV NP peptide (552–569) fused to T4 lysozyme]
- Kd (MARV VP30 CTD (146–281)): 14 µM

Molecule: B2
- binding result [3]: binds

Molecule: SSLPPLESDDEEQDRDGTSNRTPTVAPPAPVYRDHSEK (not fully specified (N-terminus); also: biotinylated (position not given here)) [biotinylated EBOV NP peptide 580–617]
- binding result [3]: binds

Molecule: RTPTVAPPAPVYRDHSEKKELPQDEQQD [EBOV NP peptide (600–627), as the N-terminal part of the NP-VP30 fusion]
- binding result [4]: binds
